Assay results taken from patent publication US20220041718A1 (AUTOLUS, published 2022).

Experiments:
[1] = biological target: T1, Recombinant purified TRBC2 (human, UniProt A0A5B9 1-129, limits assumed); assay: SPR, biotinylated TRBC captured on CAP chip, antibody injected; t1/2=ln 2/kd
T1 construct: Construct not described (may be a soluble TCR carrying TRBC2); also called TCR beta constant region 2; soluble recombinant biotinylated TRBC2
Description: (§1) To test multivalent interaction of scFv-Fc and scFv-COMP antibody formats, a series S CAP chip was immobilised with Biotin capture reagent to 2500-5000 RU. Soluble recombinant biotinylated TRBC1 and TRBC2 were captured on flow cells 3, in independent experimental cycles, to a density of 90-110 RU. Purified anti-TRBC2 scFv-Fc or scFv-COMP antibodies were injected over the flow cell with 150s contact time and 300s dissociation at 30 μl/minute of flow rate. On flow cell 1, biotinylated protein was omitted and used for reference subtraction. A ‘0 concentration’ sensorgram of buffer alone was used as a double reference subtraction to factor for drift. Data were fit to a 1:1 Langmuir binding model. Since a capture system was used, a local Rmax parameter was used for the data fitting in each case. Off-rate value was determined, and half-life calculated according to: t1/2=ln 2/kd.

[2] = biological target: T1, Recombinant purified TRBC2; assay: SPR (Biacore T200), biotinylated TRBC2 captured on a CAP chip, scFv-COMP injected; half-life of dissociation, t1/2 = ln 2/kd [cont.) C]
Description: as §1

[3] = biological target: T1, Recombinant purified TRBC2; assay: SPR (Biacore T200), captured anti-TRBC2 binder, recombinant TRBC2 as analyte; half-life of dissociation, t1/2 = ln 2/kd
Excerpt: (§2) To test 1:1 binding interaction of the anti-TRBC2 scFv, a series S CM5 sensor chip was immobilised via amine coupling, with an anti-human Fc capture antibody to a density of 9000-10000 RU, using a Biacore T200 instrument. HBS-P+ buffer was used as running buffer in all experimental conditions. The test anti-TRBC2 antibody was captured on flow 4 to a density of 200-250 RU. Recombinant purified TRBC1 or TRBC2 at known concentrations were used as the ‘analyte’ and injected over the respective flow cells with 150s contact time and 300s dissociation at 30 μl/minute of flow rate. Flow cell 1 was unmodified and used for reference subtraction. A ‘0 concentration’ sensorgram of buffer alone was used as a double reference subtraction to factor for drift. Data were fit to a 1:1 Langmuir binding model. Since a capture system was used, a local Rₘₐₓ parameter was used for the data fitting in each case. Off-rate value was determined, and half-life calculated according to: t1/2=ln 2/kd.

[4] = biological target: T1, Recombinant purified TRBC2; assay: SPR, 1:1 interaction, antibody captured, TRBC as analyte; t1/2=ln 2/kd
Excerpt: as §2

T1 sequence (A0A5B9 1-129 limits assumed): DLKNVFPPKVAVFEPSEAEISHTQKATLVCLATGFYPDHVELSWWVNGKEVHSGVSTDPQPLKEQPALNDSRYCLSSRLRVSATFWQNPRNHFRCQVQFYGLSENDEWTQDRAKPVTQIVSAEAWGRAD

| Binder | half-life [1] [s] | t1/2 [2] [s] | t1/2 [3] [s] | half-life [4] [s] |
| --- | --- | --- | --- | --- |
| anti-TRBC2 scFv-Fc (T28K, Y32F, A100N, Y102L, N103M in VH; N35R in VL of hJovi-1) (Fc fusion, Multivalent format) QVQLVQSGAEVKKPGASVKVSCKASGYKFTGFVMHWVRQAPGQGLEWMGFINPYNDDIQSNERFRGRVTMTRDTSISTAYMELSRLRSDDTAVYYCARGNGLMFDGAYRFFDFWGQGTMVTVSSGGGGSGGGGSGGGGSDIVMTQSPLSLPVTPGEPASISCRSSQRLVHSNGRTYLHWYLQKPGQSPRLLIYRVSNRFPGVPDRFSGSGSGTDFTLKISRVEAEDVGVYYCSQSTHVPYTFGQGTKLEIKRSDPRGPTIKPCPPCKCPAPNLLGGPSVFIFPPKIKDVLMISLSPIVTCVVVDVSEDDPDVQISWFVNNVEVHTAQTQTHREDYNSTLRVVSALPIQHQDWMSGKEFKCKVNNKDLPAPIERTISKPKGSVRAPQVYVLPPPEEEMTKKQVTLTCMVTDFMPEDIYVEWTNNGKTELNYKNTEPVLDSDGSYFMYSKLRVEKKNWVERNSYSCSVVHEGLHNHHTTKSFSRTPGK | 16.2 |  |  |  |
| anti-TRBC2 scFv-COMP (T28K, Y32F, A100N, Y102L, N103M in VH; N35R in VL of hJovi-1) (other, scFv fused to the COMP coiled-coil) QVQLVQSGAEVKKPGASVKVSCKASGYKFTGFVMHWVRQAPGQGLEWMGFINPYNDDIQSNERFRGRVTMTRDTSISTAYMELSRLRSDDTAVYYCARGNGLMFDGAYRFFDFWGQGTMVTVSSGGGGSGGGGSGGGGSDIVMTQSPLSLPVTPGEPASISCRSSQRLVHSNGRTYLHWYLQKPGQSPRLLIYRVSNRFPGVPDRFSGSGSGTDFTLKISRVEAEDVGVYYCSQSTHVPYTFGQGTKLEIKRSGGGGSGGGGSGGGGSAGSDLGPQMLRELQETNAALQDVRELLRQQVREITFLKNTVMECDACGSGKKDPKSGGGGSYPYDVPDYA | 438 | 436 |  |  |
| anti-TRBC2 scFv (T28K, Y32F, A100N, Y102L, N103M in VH; N35R in VL of hJovi-1) (scFv, the format in the assay is unsure) scFv: QVQLVQSGAEVKKPGASVKVSCKASGYKFTGFVMHWVRQAPGQGLEWMGFINPYNDDIQSNERFRGRVTMTRDTSISTAYMELSRLRSDDTAVYYCARGNGLMFDGAYRFFDFWGQGTMVTVSSGGGGSGGGGSGGGGSDIVMTQSPLSLPVTPGEPASISCRSSQRLVHSNGRTYLHWYLQKPGQSPRLLIYRVSNRFPGVPDRFSGSGSGTDFTLKISRVEAEDVGVYYCSQSTHVPYTFGQGTKLEIKR |  |  | 8.3 | 8 |
